We go through one protein from paper PMC10031476, “Interaction of the bacterial division regulator MinE with lipid bicelles studied by NMR spectroscopy” (The Journal of Biological Chemistry, 2023).

This data set deals with the molecule itself. In words: NMR (3D 15N-separated NOE spectrum, NOE-TROSY); 2H/15N-labeled ngMinE bound to q = 0.5 DMPC:DHPC bicelles; 150 ms mixing time; 35 °C; 25 mM potassium phosphate pH 6.5, 1 mM EDTA, 1 mM benzamidine hydrochloride.

B1: Full-length Neisseria gonorrhoeae MinE bearing the double mutation E46A/R10Q (natural protein)
chain: MSLIELLFGQKQKTATVARDRLQIIIAQERAQEGQTPDYLPTLRKALMEVLSKYVNVSLDNIRISQEKQDGMDVLELNITLPEQKKV
modifications: uniform 2H/15N or 2H/15N/13C isotope labeling
notes: Dimer with C2 symmetry (about 19 kDa); also called ngMinE; full-length ngMinE; not shown: His6, C-terminal, kept
Consider B1, for which the binding result is listed as “binds”.
